Paper PMC3623789

Experiment: confocal imaging, co-localisation with Na+/K+-ATPase, HEK293
Conditions: glycan lost; control: wild-type 3xFLAG-rPRG3

B1: rPRG3 (plasticity-related gene 3, LPR1): N163Q (protein)
parent chain: MAVENNTQRSYSIIPCFIFVELVIMAGTVLLAYYFECTDTFQVHIQGFFCQDGDLMKPYPGTEEESFISPLVLYCVLAATPTAIIFIGEISMYFIKSTRESLIAEEKMILTGDCCYLSPLLRRIVRFIGVFAFGLFATDIFVNAGQVVTGHLTPYFLTVCQPNYTSTDCRAHHQFINNGNICTGDLEVIEKARRSFPSKHAALSIYSALYATMYITSTIKTKSSRLAKPVLCLGDLCTAFLTGLNRVSEYRNHCSDVIAGFILGTAVALFLGMCVVHNFKGTQGSASKPKPEDPRGVPLMAFPRIESPLETLSAQNHSASMTEVT
localisation_or_trafficking: abolishes
